Reference: US20060252118

Tests used:
[1] = molecular target: Tyrosine (Tyr) phosphorylated Myelin Basic Protein substrate (33P labeled)
[2] = molecular target: Serine/threonine (Ser/Thr) phosphorylated Myelin Basic Protein substrate (33P labeled)
[3] = molecular target: T1, Peptide 1 (phosphoserine peptide) H-Val-Pro-Ile-Pro-Gly-Arg-Phe-Asp-Arg-Arg-Val-pSer-Val-Ala-Ala-Glu-NH2
T1 chain: VPIPGRFDRRVSVAAE

[4] = molecular target: T2, Peptide 3 (phosphotyrosine peptide) H-Glu-Trp-Met-Arg-Glu-Asn-Ala-Glu-pTyr-Leu-Arg-Val-Ala-OH
T2 chain: EWMRENAEYLRVA

[5] = molecular target: T3, Peptide 2 (phosphothreonine peptide) H-Thr-Ala-Asp-Ser-Gln-His-Ser-pThr-Pro-Pro-Lys-Lys-Lys-Arg-Lys-Val-Glu-OH
T3 chain: TADSQHSTPPKKKRKVE

Serine/threonine (Ser/Thr) phosphorylated Myelin Basic Protein substrate (33P labeled), sequence (P02687 whole entry): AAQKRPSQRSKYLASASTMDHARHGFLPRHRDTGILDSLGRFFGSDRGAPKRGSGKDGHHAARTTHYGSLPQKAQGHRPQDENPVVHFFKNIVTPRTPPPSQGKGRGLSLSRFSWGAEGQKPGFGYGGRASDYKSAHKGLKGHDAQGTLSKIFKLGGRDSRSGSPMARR
Tyrosine (Tyr) phosphorylated Myelin Basic Protein substrate (33P labeled), sequence (P02687 whole entry): as above

B1: thermolabile Antarctic phosphatase (TAP), truncated, with N-terminal His-tag (expressed from pEGTAP7.4.1) (protein)
chain: MHHHHHHMKLKKIVFTLIALGLFSCKTTSVLVKNEPQLKTPKNVILLISDGAGLSQISSTFYFKEGTPNYTQFKNIGLIKTSSSREDVTDSASGATAFSCGIKTYNAAIGVADDSTAVKSIVEIAALNNIKTGVVATSSITHATPASFYAHALNRGLEEEIAMDMTESDLDFFAGGGLNYFTKRKDKKDVLAILKGNQFTINTTGLTDFSSIASNRKMGFLLADEAMPTMEKGRGNFLSAATDLAIQFLSKDNSAFFIMSEGSQIDWGGHANNASYLISEINDFDDAIGTALAFAKKDGNTLVIVTSDHETGGFTLAAKKNKREDGSEYSDYTEIGPTFSTGGHSATLIPVFAYGPGSEEFIGIYENNEIFHKILKVTKWNQ
specific activity (release of 33P from phosphorylated MyBP, TCA-soluble counts) [1]: also greater than the specific activity for CIAP | specific activity (release of 33P from phosphorylated MyBP, TCA-soluble counts) [2]: 1910 nmol/min/mg | units of TAP required to completely remove the phosphates from 5 µg of the peptide in 10 mins (Cap-HPLC) [3]: 2.5 units and 10 units of TAP were required to completely remove the phosphates from the phospho-serine and phospho-threonine peptides respectively | units of enzyme required to remove all the phosphates from 5 µg of the peptide in 10 mins (Cap-HPLC) [4]: only 0.02 units of enzyme being required to remove all the phosphates from 5 µg of the peptide in 10 mins | units of TAP required to completely remove the phosphates from 5 µg of the peptide in 10 mins (Cap-HPLC) [5]: 2.5 units and 10 units of TAP were required to completely remove the phosphates from the phospho-serine and phospho-threonine peptides respectively
